Source: the supplement of paper PMC10724198
± gives the standard deviation of the averaged measurements.

Assays:
Saccharomyces cerevisiae [1] = assay: protein stability index of tFT-peptide fusion (C-terminal peptide) (PSI (0-1 scale)); higher = more stable (slower turnover); settings: genetic background: wild type; temperature: 30 C
Saccharomyces cerevisiae [2] = assay: as above
Description: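 MPS profiling in S. cerevisiae of the tFT-X12 degron library: putative degron peptides plus stable controls, 12 aa, fused to the C-terminus of a sfGFP-mCherry timer. Cells are FACS-sorted into 8 mCherry/sfGFP bins and deep-sequenced. PSI runs from 0 (unstable) to 1 (stable). Backgrounds are wild type, das1Δ and doa10Δ at 30 °C, and wild type, das1Δ, cdc34-1 and cdc53-1 at 37 °C; 2-3 technical replicates each.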

[3] = genetic background: cdc34-1, temperature: 37 C
[4] = genetic background: cdc53-1, temperature: 37 C
[5] = genetic background: das1 deletion, temperature: 30 C
[6] = genetic background: das1 deletion, temperature: 37 C
[7] = genetic background: doa10 deletion, temperature: 30 C
[8] = genetic background: wild type, temperature: 30 C
[9] = genetic background: wild type, temperature: 37 C
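Also: PSI is a weighted mean of sequencing reads over stability bins, variants kept only with over 10 reads, mCherry proximal and sfGFP distal, peptide attached via GGGS linker.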

Sequence | protein stability index (Saccharomyces cerevisiae [1]) | protein stability index (Saccharomyces cerevisiae [2]; [3]) | protein stability index (Saccharomyces cerevisiae [2]; [4]) | protein stability index (Saccharomyces cerevisiae [2]; [5]) | protein stability index (Saccharomyces cerevisiae [2]; [6]) | protein stability index (Saccharomyces cerevisiae [2]; [7]) | protein stability index (Saccharomyces cerevisiae [2]; [8]) | protein stability index (Saccharomyces cerevisiae [2]; [9])
SLIDPLGNLFNS | 0.752 ± 0.041 | 0.71 ± 0.015 | 0.756 ± 0.038 | 0.682 ± 0.039 | 0.756 ± 0.028 | 0.672 ± 0.024 | 0.678 ± 0.014 | 0.72 ± 0.018
SLIFLLVLILSL | 0.363 ± 0.074 | 0.412 ± 0.023 | 0.51 ± 0.05 | 0.369 ± 0.038 | 0.493 ± 0.029 | 0.364 ± 0.048 | 0.347 ± 0.036 | 0.483 ± 0.046
SLLFLVLFFPLV | 0.432 ± 0.023 | 0.4885 ± 0.00069 | 0.524 ± 0.025 | 0.42 ± 0.034 | 0.55 ± 0.029 | 0.456 ± 0.019 | 0.43 ± 0.03 | 0.506 ± 0.0075
SLPCCKVVFCVI | 0.4491 ± 0.003 | 0.5166 ± 0.001 | 0.554 ± 0.023 | 0.417 ± 0.038 | 0.575 ± 0.01 | 0.332 ± 0.0048 | 0.355 ± 0.036 | 0.515 ± 0.015
SLVIRLNIRLIL | 0.394 ± 0.011 | 0.462 ± 0.021 | 0.435 ± 0.0077 | 0.423 ± 0.03 | 0.414 ± 0.034 | 0.329 ± 0.0061 | 0.325 ± 0.018 | 0.361 ± 0.019
SPCSNFLECLSF | 0.561 ± 0.11 | 0.714 ± 0.03 | 0.7431 ± 0.0018 | 0.643 ± 0.0079 | 0.729 ± 0.017 | 0.626 ± 0.025 | 0.641 ± 0.017 | 0.733 ± 0.0071
SPGFVLLAVLVI | 0.347 ± 0.086 | 0.1636 ± 0.0011 | 0.235 ± 0.0088 | 0.231 ± 0.029 | 0.356 ± 0.016 | 0.194 ± 0.002 | 0.214 ± 0.025 | 0.323 ± 0.04
SPGGALVFFVLV | 0.467 ± 0.0054 | 0.552 ± 0.038 | 0.5998 ± 0.0056 | 0.44 ± 0.023 | 0.617 ± 0.0083 | 0.391 ± 0.012 | 0.431 ± 0.027 | 0.606 ± 0.017
SPRSIALLHLFS | 0.3 ± 0.044 | 0.648 ± 0.063 | 0.708 ± 0.051 | 0.655 ± 0.02 | 0.705 ± 0.062 | 0.154 ± 0.017 | 0.213 ± 0.031 | 0.327 ± 0.024
SPSRAGQHLYYP | 0.718 ± 0.034 | 0.684 ± 0.028 | 0.7347 ± 0.0032 | 0.64 ± 0.016 | 0.7334 ± 0.0037 | 0.636 ± 0.0095 | 0.662 ± 0.011 | 0.6953 ± 0.0059
